Reference: PMC2997670 (The Biochemical journal, 2010)

B1: PcpF, S-glutathionyl-(chloro)hydroquinone reductase of Sphingobium chlorophenolicum ATCC 39723 (enzyme, UniProt Q8KN33 1-313, looked up)
chain: MGLLIDGVWRDAWYDTKSSGGRFVRKESQYRGGLDAGFRGEPGRYHLYAGFACPWAHRVLIMRALKGLEEMISVSMVNAYMGENGWTFLPGDDVVPDSINGADYLYQVYTAADPTYTGRVTIPILWDKVEKRILNNESSEIIRILNSAFDDVGALPGDYYPAEFRPEIDRINARVYETLNNGVYRSGFATTQEAYEEAFYPLFDTLDWLEEHLTGREWLVGDRLTEADIRLFPTLVRFDAIYHGHFKCNLRRIADYPNLSRLVGKLASHERVAPTINLRHAKAHYYGSHPSVNPTGIVPVGPAQPLPGLTLQS
B2: ECM4 (extracellular mutant 4) of Saccharomyces cerevisiae (enzyme, S. cerevisiae, UniProt P36156 1-370, looked up)
chain: MSKQWASGTNGAFKRQVSSFRETISKQHPIYKPAKGRYWLYVSLACPWAHRTLITRALKGLTSVIGCSVVHWHLDEKGWRFLDMEKQLEDSEDFLEHWHDVAGGIRTAKEDSSKSFAEIKNDSQRFMVDATNEPHYGYKRISDLYYKSDPQYSARFTVPVLWDLETQTIVNNESSEIIRILNSSAFDEFVDDDHKKTDLVPAQLKTQIDDFNSWVYDSINNGVYKTGFAEKAEVYESEVNNVFEHLDKVEKILSDKYSKLKAKYGEEDRQKILGEFFTVGDQLTEADIRLYTTVIRFDPVYVQHFKCNFTSIRAGYPFIHLWVRNLYWNYDAFRYTTDFDHIKLHYTRSHTRINPLGITPLGPKPDIRPL

Biological target: the molecule itself
Test: SEC + SEC-MALS

Protein	stoichiometry N
B1	2
B2	2
